Biological target: the molecule itself
Experiment: cryo-EM structure; purified cSID1 in 25 mM HEPES pH 7.4, 150 mM NaCl, 0.01% GDN; apo and mixed with 100 uM 50-bp dsRNA; C2 symmetry imposed (the dsRNA complex also refined in C1)

B1: Caenorhabditis elegans systemic RNAi-defective protein 1 (SID1) (natural protein, UniProt Q9GZC8 18-776, looked up)
chain: QNNSTTPSPIITSSNSSVLVFEISSKMKMIEKKLEANTVHVLRLELDQSFILDLTKVAAEIVDSSKYSKEDGVILEVTVSNGRDSFLLKLPTVYPNLKLYTDGKLLNPLVEQDFGAHRKRHRIGDPHFHQNLIVTVQSRLNADIDYRLHVTHLDRAQYDFLKFKTGQTTKTLSNQKLTFVKPIGFFLNCSEQNISQFHVTLYSEDDICANLITVPANESIYDRSVISDKTHNRRVLSFTKRADIFFTETEISMFKSFRIFVFIAPDDSGCSTNTSRKSFNEKKKISFEFKKLENQSYAVPTALMMIFLTTPCLLFLPIVINIIKNSRKLAPSQSNLISFSPVPSEQRDMDLSHDEQQNTSSELENNGEIPAAENQIVEEITAENQETSVEEGNREIQVKIPLKQDSLSLHGQMLQYPVAIILPVLMHTAIEFHKWTTSTMANRDEMCFHNHACARPLGELRAWNNIITNIGYTLYGAIFIVLSICRRGRHEYSHVFGTYECTLLDVTIGVFMVLQSIASATYHICPSDVAFQFDTPCIQVICGLLMVRQWFVRHESPSPAYTNILLVGVVSLNFLISAFSKTSYVRFIIAVIHVIVVGSICLAKERSLGSEKLKTRFFIMAFSMGNFAAIVMYLTLSAFHLNQIATYCFIINCIMYLMYYGCMKVLHSERITSKAKLCGALSLLAWAVAGFFFFQDDTDWTRSAAASRALNKPCLLLGFFGSHDLWHIFGALAGLFTFIFVSFVDDDLINTRKTSINIF
modifications: N-linked glycans (three glycosylation sites observed in BRD2)
notes: signal peptide in the construct; full-length cDNA in pCAG; His6 and FLAG tags were inserted after the signal peptide; also called cSID1; apo-cSID1; source: HEK293F, transiently transfected (pCAG), purified (anti-FLAG M2, Ni-NTA, SEC in GDN)
stoichiometry N: 2
